Source: patent US20180244760A1 (UNIVERSITY OF MARYLAND BALTIMORE, published 2018)

B1: ABAB-IgG1 tetra-specific, octameric binding agent (bispecific antibody)
heavy: not shown
light: QLQLVETGGGLVQPGGSLRLSCAASGFTFSDYVMTWVRQAPGKGPEWIATINTDGSTMRDDSTKGRFTISRDNAKNTLYLQMTSLKPEDTALYYCARGRVISASAIRGAVRGPGTQVTVSSGGGGSGGGGSGGGGSQVQLVESGGGLVQTGGSLRLSCASSGSIAGFETVTWSRQAPGKSLQWVASMTKTNNEIYSDSVKGRFIISRDNAKNTVYLQMNSLKPEDTGVYFCKGPELRGQGIQVTVSSRTVAAPSVFIFPPSDEQLKSGTASVVCLLNNFYPREAKVQWKVDNALQSGNSQESVTEQDSKDSTYSLSSTLTLSKADYEKHKVYACEVTHQGLSSPVTKSFNRGEC
notes: also called IgG-ABAB; IgG-ABBA
B2: VHH peptide monomer E3 (VHH)
VHH: QVQLVESGGGLVQTGGSLRLSCASSGSIAGFETVTWSRQAPGKSLQWVASMTKTNNEIYSDSVKGRFIISRDNAKNTVYLQMNSLKPEDTGVYFCKGPELRGQGIQVTVSS
notes: also called VHH E3

What was measured:
[1] = biological target: T1, Clostridium difficile toxin B (TcdB) (Clostridium difficile, UniProt P18177 2-2366); test: cell-based or functional assay
T1 sequence (P18177 2-2366 limits assumed): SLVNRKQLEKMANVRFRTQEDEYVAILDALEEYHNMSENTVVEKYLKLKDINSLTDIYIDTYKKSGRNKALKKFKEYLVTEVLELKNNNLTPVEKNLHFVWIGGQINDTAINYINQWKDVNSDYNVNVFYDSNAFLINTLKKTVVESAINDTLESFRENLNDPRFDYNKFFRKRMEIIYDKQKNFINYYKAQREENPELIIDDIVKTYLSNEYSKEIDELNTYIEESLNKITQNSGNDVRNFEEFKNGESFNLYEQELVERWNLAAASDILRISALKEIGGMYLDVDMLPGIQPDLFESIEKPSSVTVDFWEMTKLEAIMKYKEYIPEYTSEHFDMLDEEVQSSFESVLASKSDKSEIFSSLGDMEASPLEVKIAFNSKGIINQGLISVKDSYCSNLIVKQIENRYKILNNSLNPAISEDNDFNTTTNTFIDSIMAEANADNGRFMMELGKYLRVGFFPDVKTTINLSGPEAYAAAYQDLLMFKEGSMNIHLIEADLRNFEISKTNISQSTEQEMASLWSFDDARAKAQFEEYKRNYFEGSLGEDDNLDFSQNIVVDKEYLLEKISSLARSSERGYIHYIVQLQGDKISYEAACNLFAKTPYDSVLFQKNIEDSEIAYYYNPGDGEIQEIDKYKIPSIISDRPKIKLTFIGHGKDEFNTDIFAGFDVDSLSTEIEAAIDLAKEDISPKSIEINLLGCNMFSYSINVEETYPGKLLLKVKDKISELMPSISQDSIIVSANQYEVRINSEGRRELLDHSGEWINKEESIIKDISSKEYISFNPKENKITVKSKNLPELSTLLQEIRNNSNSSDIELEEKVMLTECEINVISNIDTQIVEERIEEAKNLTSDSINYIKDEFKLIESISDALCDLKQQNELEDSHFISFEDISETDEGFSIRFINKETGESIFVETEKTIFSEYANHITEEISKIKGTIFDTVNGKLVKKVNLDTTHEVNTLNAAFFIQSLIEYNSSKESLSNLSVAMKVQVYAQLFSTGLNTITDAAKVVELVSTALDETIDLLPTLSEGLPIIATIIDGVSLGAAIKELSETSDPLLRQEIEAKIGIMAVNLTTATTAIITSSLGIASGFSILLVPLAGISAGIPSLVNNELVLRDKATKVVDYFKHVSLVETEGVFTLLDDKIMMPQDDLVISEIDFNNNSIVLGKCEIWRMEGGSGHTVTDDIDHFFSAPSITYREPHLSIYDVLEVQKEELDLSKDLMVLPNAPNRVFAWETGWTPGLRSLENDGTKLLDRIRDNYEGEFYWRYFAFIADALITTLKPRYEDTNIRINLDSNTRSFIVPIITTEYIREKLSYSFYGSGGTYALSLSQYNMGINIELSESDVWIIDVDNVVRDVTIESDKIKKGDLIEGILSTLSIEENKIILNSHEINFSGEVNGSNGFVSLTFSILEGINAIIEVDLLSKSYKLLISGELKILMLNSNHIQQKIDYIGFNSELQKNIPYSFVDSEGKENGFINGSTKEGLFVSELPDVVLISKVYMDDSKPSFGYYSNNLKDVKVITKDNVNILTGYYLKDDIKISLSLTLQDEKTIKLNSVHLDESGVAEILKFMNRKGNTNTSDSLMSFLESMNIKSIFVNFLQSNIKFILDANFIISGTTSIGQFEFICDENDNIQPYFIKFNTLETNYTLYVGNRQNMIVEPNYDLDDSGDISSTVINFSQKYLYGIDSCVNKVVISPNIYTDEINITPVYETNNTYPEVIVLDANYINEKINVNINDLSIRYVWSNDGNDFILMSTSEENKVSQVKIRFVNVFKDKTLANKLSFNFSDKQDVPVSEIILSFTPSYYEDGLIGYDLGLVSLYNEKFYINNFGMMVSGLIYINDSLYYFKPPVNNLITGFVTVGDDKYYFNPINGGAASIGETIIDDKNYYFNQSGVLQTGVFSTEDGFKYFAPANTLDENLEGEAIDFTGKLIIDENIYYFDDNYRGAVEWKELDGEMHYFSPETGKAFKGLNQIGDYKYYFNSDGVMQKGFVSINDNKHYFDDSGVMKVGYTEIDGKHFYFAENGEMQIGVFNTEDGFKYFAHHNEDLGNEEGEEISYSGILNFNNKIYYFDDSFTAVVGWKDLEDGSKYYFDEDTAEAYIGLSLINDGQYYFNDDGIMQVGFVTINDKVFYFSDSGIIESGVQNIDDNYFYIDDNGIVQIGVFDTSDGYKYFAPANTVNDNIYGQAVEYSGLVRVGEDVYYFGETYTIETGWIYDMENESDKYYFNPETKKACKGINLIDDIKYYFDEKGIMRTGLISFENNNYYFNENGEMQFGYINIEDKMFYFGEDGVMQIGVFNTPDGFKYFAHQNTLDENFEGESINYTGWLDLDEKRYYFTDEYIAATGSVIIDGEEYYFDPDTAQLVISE

[2] = biological target: T1, Clostridium difficile toxin B (TcdB); test: sandwich ELISA: TcdB coated, Habab titrated, TcdA at 40 ng/ml detected
[3] = biological target: T1, Clostridium difficile toxin B (TcdB); test: ELISA, plate coated with 1 ug/ml TcdB

Row | Binder | neutralization of the TcdB cytopathic effect on Vero cells, fold potency over the Merck antibody [1] [fold] | EC50 (read off the curve) [2] [µg/mL] | EC50 (read off the curve) [3] [µg/mL]
1 | B1 | ≥ 1000 | ~0.05 | 
2 | B2 |  |  | ~0.01
